According to a protein production outcome set (Wang et al. 2014):

assay: label from the status in PepcDB records
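Further: failed if final PepcDB status was selected cloned or expressed and not failed if soluble or beyond.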

Protein production, not failed:
MGRKSNRAKEKKQRRLEERAAMDAVCAKVDAANKLEDPLSAMPVFKKYDRNGLNLQIECKRVTALSPDTVEWAYELTRANMQTLYEQSEWGWKEREKREEMKDERAWYLLARDADSTPLAFSHFRFDVECGDEVLYCYEVQLESKVRRKGLGKFLIQILQLIANSTQMKKVMLTVFKHNHGAYQFFREALQFEIDETSPSMSGCCGEDCSYEILSRRTKYGEVSGHAHGGHCGGCCH
MGRTPETHVIDFRAAEQLLAARDPRGAVKLLDPVIAAHPENTAARLLRARAFFAAAQLRPAELEFTIVLEREPDNAFAHFALARTYERQLRPDQAKRHFRLAAALDPNPQYLKAARLEHHHHHH
MGSSHHHHHHENLYFQGSNIAFYVVSDVHGYIFPTDFTSRNQYQPMGLLLANHVIEQDRRQYDQSFKIDNGDFLQGSPFCNYLIAHSGSSQPLVDFYNRMAFDFGTLGNHEFNYGLPYLKDTLRRLNYPVLCANIYENDSTLTDNGVKYFQVGDQTVGVIGLTTQFIPHWEQPEHIQSLTFHSAFEILQQYLPEMKRHADIIVVCYHGGFEKDLESGTPTEVLTGENEGYAMLEAFSKDIDIFITGHQHRQIAERFKQTAVIQPGTRGTTVGRVVLSTDEYENLSVESCELLPVIDDSTFTIDEDDQHLRKQLEDWLDYEITTLPYDMTINHAFEARVAPHPFTNFMNYALLEKSDADVACTALFDSASGFKQVVTMRDVINNYPFPNTFKVLAVSGAKLKEAIERSAEYFDVKNDEVSVSADFLEPKPQHFNYDIYGGVSYTIHVGRPKGQRVSNMMIQGHAVDLKQTYTICVNNYRAVGGGQYDMYIDAPVVKDIQVEGAQLLIDFLSNNNLMRIPQVVDFKVEK
MGSSHHHHHHSSGLVPRGSHMLLREVTREERKNFYTNEWKVKDIPDFIVKTLELREFGFDHSGEGPSDRKNQYTDIRDLEDYIRATAPYAVYSSVALYEKPQEMEGWLGTELVFDIDAKDLPLRRCEHEPGTVCPICLNDAKEIVRDTVIILREELGFNDIHIIYSGRGYHIRVLDEWALKLDSKSRERILSFVSASEIEDVEEFRKLLLNKRGWFVLNHGYPRAFRLRFGYFILRIKLPHLINAGIRKSIAKSILKSKEEIYEEFVRKAILAAFPQGVGIESLAKLFALSTRFSKSYFDGRVTVDLKRILRLPSTLHSKVGLIAKYVGTNERDVMRFNPFKHAVPKFRKEEVKVEYKKFLESLGT
MGSSHHHHHHSSGLVPRGSTETSQQLQLRVQGKEKHQTLEVSLSRDSPLKTLMSHYEEAMGLSGRKLSFFFDGTKLSGRELPADLGMESGDLIEVWG
MGSSHHHHHHSSGRENLYFQGGAGTSAAMRQATSPKTILEYIINFFTCGGIRRRNETQYQELIETMAETLKSTMPDRGAPLPENIILDDMDGCRVEFNLPGENNEAGQVIVRVSKGDHSETREIPLASFEKICRALLFRCEFSLPQDSVILTAQGGMNLKGAVLTGANLTS
MGSSHHHHHHSSGRENLYFQGMAGGKSMNVESYEKILRDRQRELYRRLHKIEADFEEPRNPDDEDRASERSNDEVLDELGQVGQDELRAIDAALARIASGTFGTCVKCGKRISEDRLKAVPYTPFCQECAAAL
MGSVAARDYVGIATKYAEAAVADKGRKRHGRWIRLAAKRFLDDLKRARRRGTPFFFDEWHANDACDFIEKLPHVEGKWETPTIVMHPSHVFFVVQLFGFRRRDAIKVEGWGDDDTFHPRRFTSALFAVARKNAKSTLASAILLYCLCCEPEEGAQVISAATTFDQASIIFRASKRMVEKTPDLAEAFGLATWAKSISRFETGSSYKAVHAKASTQDGLNPSHTGLDEIHAHKTADLLNVLQSAAGARANPLWLFTTTEGYTNAGPWAEIRGFVFALLRGVLGTQADHFLALFYALDNEDKSAKITQDDEFDESKWIKANPLLDVNPHLKAAIRKEAVEAKQMPSKLAEFRIKRCNRPASTASGWVDLTKWAKCGGAVDLDWLAGYPCWGGLDLASTTDIAAFRLLWLVEGVWYTHGWRWVPSEAVKQRTERATVPYAGWVEAGYLLQTEGDVTDYSVIERDILAAVQRFDPQQIAYDAWNAADLVNRLVAASVPMVQFVQGTKSYHPAMQALELAYVGGKLVHGGDPVLAWCASNLVARRDVNLSMAPDRKRSADKIDDMAALLMAMGLAVASDDAEDLSDFFNNAVIGLEHHHHHH
MGSVVHAEITEIKPFELRVNFGNSFRGRIHITEVLVNDASTSDEPFAKFRVGQSISARVVAKPCHTDIKKTQLWELSVKP

Protein production, failed:
MGRKQLNHIKCRENCSLVAKAGFRHRRVIIQGIQSAMVQDSDEILFVEEEDPVAGSLPSDVSPWKVLVADDDPEVFTVTRLVLSGFVFAGRGVSLLYAGSAAEATEILRQQSDIAVALLDVVMETEDAGLKLVKVIRDDLGNSHLRIVLRTGQPGQAPEHDVVMRYDINDYRSKTELTDTKLITTLVSSLRSYQQIEALERSRAELREARDTLEIRVAERTRDLRESEARLRSILDASVFPILVLSEEGDRVRFLNDHAGEALGWALLENTTSTLPDLWENPVDGARLLARTVQRGRVLDCEFRLRGAGGEPFWALVSTIAMSYDGQPAVLLSFNDITVHKQREEAWQRLALTDPLTGLGNRRLLFDRGILEVARARRGCWPLSGLMIDLDHFKRINDTQGHAAGDAILRTLADTLRESLREIDVIARVGGEEFAILLPDTSLTAAHEVGERLRLSCQIPQPVGGPVTISVGISTLHPEDRGLGDMLSRADDALYRAKRNGRDRVEIADDSEDNQDVSP
MGRKRGNAIMEKTKIDIISGFLGAGKTTLIKKLLKDAFQGEQVVLIENEFGEIGIDGGFLKEAGIQIREMNSGCICCSLVGDFGASLKEVISKYHPDRILIEPSGVGKLSDVIKAVQGVEEETGLVLNSYTTVVDAKKCKMYMRNFGEFFNNQVEYAGAIIMSRTDIVDEAKAQASLELLREINSKAAIITTPIEKLEGKKLLEVMEHPVSLADELMEEEEVCPECGHVHEHGEHHHHDHDEECGCGHDHDHEEHEHHHHDHDEECGCGHDHAHEEHEHHHHDHDHECGCGHDHHDHHHHHADEVFTSWGRETIKKYTKENLEKMLEALSASDEYGIILRAKGMLPAEDGTWIYFDMVPEETEIREGAPEYTGRLCVIGSKLNEDKLAELFGL
MGRNFLAILYFCFLFLGFLSCSNVKSMSLMAIGNYEYVRGNYQNAISNYYNLVEDEKYSAWGYYNLGVVYYSLGEYESSLRIFSYAKKTNDIFLNFNVNYNEGVIYYNQGLYHKAEVAFKEALKINPGSYNAKYNLELAIIKKRAVRDSLNSLSVEKGKNFVESNENFLRYIENLERVVWLRKIDENLAVPKEDW
MGRVRLQANQMEWRPGIYVGEGTTIASSAQLEPPLWIGQHCYIGEEVQLKAGTVIGDESRIEAGACLDRAVVWNRVQIGQRSHLEGCVLADGVRLERHVQIHEGAVIGSGCRLQEEAQVQAEVRIWPRKQIEAGAILEHHHHHH
MGSASIGYQFGISARFYGNFNLSSDITVSSLPCKLDVSIKSLFSAPSSTHKEYSNRARVCSLPNTDGYCDEKFETPILDSIETPLQLKNLSVKELKLLADEIRTELHSVLWKKTQKSMNPSFAAIELTLALHYVFRAPVDNILWDAVEQTYAHKVLTRRWSAIPSRQNSGISGVTSRLESEYDSFGTGHGCNSISAGLGLAVARDMKGKRDRVVAVIDNVTITAGQAYEAMSNAGYLDSNMIVILNDSRHSLHPNMEEGSKASISALSSIMSKIQSSKVFRKFRELAKAMTKRIGKGMYEWAAKVDEYARGMVGPTGSTLFEELGLYYIGPVDGHNIEDLVCVLREVSSLDSMGPVLVHVITEGNRDAETVKNIMVKDRRTYSDCFVEALVMEAEKDRDIVVVHAGMEMDPSLLTFQERFPDRFFNVGMAEQHAVTFSAGLSSGGLKPFCIIPSAFLQRAYDQVVHDVDRQRKAVRFVITSAGLVGSDGPVQCGAFDIAFMSSLPNMIAMAPADEDELVNMVATAAYVTDRPVCFRFPRGSIVNMNYLVPTGLPIEIGRGRVLVEGQDVALLGYGAMVQNCLHAHSLLSKLGLNVTVADARFCKPLDIKLVRDLCQNHKFLITVEEGCVGGFGSHVAQFIALDGQLDGNIKWRPIVLPDGYIEEASPREQLALAGLTGHHIAATALSLLGRTREALLLMS
MGSGPELTQTSLETLQEALQTERITYVDTLNEDIGAVVESADQLAFDYVVGDVSDYGVSSNDHVHLDLVHEGSTIHCVLFGYKRSAIDATIEDGMQVAVKGSLSYYEDGGNVSVIVEDIVEVGEGTYQRIYEQNRQLLDSDGLLDPEHKQALPDFPERIGIATSATSDARMDAITSIHERYPDVDIVIQNTSVQGDDAMMSIMGAISELDDDPRVDVIVLTRGGGSDKHLRVFNETPLCRVIHKTETPVVVGVGHENDRTLADEVADRRVMTPTEAGNIVPERTTLEAELETLEERLNTAYTETAETTLETMDDRLTRAYRRTVESDLSAFEAELDRTYDTHVRDELTDLANRLEQARTQYDQQREREQEVAAHRRQRRRLLLILVALGLLVVALLLYILLPL
MGSLQPDAGNASWNGTEAPGGGARATPYSLQVTLTLVCLAGLLMLLTVFGNVLVIIAVFTSRALKAPQNLFLVSLASADILVATLVIPFSLANEVMGYWYFGKAWCEIYLALDVLFCTSSIVHLCAISLDRYWSITQAIEYNLKRTPRRIKAIIITVWVISAVISFPPLISIEKKGGGGGPQPAEPRCEINDQKWYVISSCIGSFFAPCLIMILVYVRIYQIAKRRTRVPPSRRGPDAVAAPPGGTERRPNGLGPERSAGPGGAEAEPLPTQLNGAPGEPAPAGPRDTDALDLEESSSSDHAERPPGPRRPERGPRGKGKARASQVKPGDSLPRRGPGATGIGTPAAGPGEERVGAAKASRWRGRQNREKRFTFVLAVVIGVFVVCWFPFFFTYTLTAVGCSVPRTLFKFFFWFGYCNSSLNPVIYTIFNHDFRRAFKKILCRGDRKRIV
MGSPNINGNTAKLVNAILDGAAEKRAEKVIYNLASLNIKGCDACFRCQKSGCCAIDDDMQELYHEIQAADTIVLGSPVYMWQMTAQTKLLIDRLTAFLKPDFSSRLDNKKLILVFSQGSPDRDAFKPYFEYTAGLLYYLGFDVLETVIAAGTDNLEVSFRPKLLENARELGRLVSTSPLTGPEFKKDEPSLTPLL
MGSSSRQGWRSVFKDVTQKWDVMTVEEQEKELSLLEEWTERVLEEWSDMHEACMTLRERQQQSSVLEKYPPYVSKGTALYDLEMFPEAAMQFDRELKMQPHMHHPLLHLYAIFANLYGGQRERCKEHCVYVLTTSVDRLVRYFTYMALGTLYMQEGEVEEALTSYEHASKLTFHPDVMYNLGMAYFLQHQYALAIPCFMEVIKDGEEDVDALYFLGCALCESGYVEEGCAKWLEAIQLCPPEKVLLTIGAKLEWYGFHQAAVHCFEQLLQSRQLRHLAKHGIAWNLALQDEREKAIHMLKELIAVPQIREDVRLSIEFLAHCWNDGNLRQLAASIERG
MGSTTGSMLTAISDTHGTDNHRLTGRTLDAVREADHVLHAGDFMTEQVLDAIDAESDELTGVVGNNDRPAVRARLSDVATVSWEELTIVVVHGHEHTETALGMLARQENADIVVVGHSHKPVLTDFGGWTLVNPGSYADPRRYQPAHAELDVMAGDVRVRLRSPDGTPISTTIVERLEHHHHHH
MGTHIKNQYISPPNTVYDCSIVKLPKIENRSGNITPIHSWVNIPFQIKRIFYSYDIPGGESRGAHAHKKCHQFLIAASGSFEVVLDDGISKRTVLLNRPFYGLHIPPGIWASEQGFSSGSVCLVLASHVYEEDDYLRDYQGFLNYKSQGIFEMFINVNGGGVSPKIFYLPFLFTKSKEEVA
MGTIESYLTNSYNYIIFNFKKLCIGGLMSAIVGAMSGVTTAFIDLFMERANYDIMHIIMSFLIYFGIIFIIGLIVSAIIGGYNVRIMKTTVEGLNVAPDWNNITDLLYRGILYIVGLVLLNIIFYFIPAILFVFGIFSLYISKIIGAFLIIISILIFIISVISLWLYSKLAEVNYSVKGFYGFFEFKEIFKMIGIRYIILVIIIAIINFIISLIVVLPLNIIDIFISYSALANSILTIIYISIKGISYALSTFVDFYLGVFSIRAVALYYKDRKGIT
